Source: patent US20240270845A1 (ZELARION MALTA, published 2024)
Each block holds one binder with its values, some of them ahead of it.

Molecular target: T1, Recombinant truncated human CD2 (human, UniProt P06729 25-209, limits assumed)
T1 construct: Bought; also called LFA2
T1 sequence (looked up): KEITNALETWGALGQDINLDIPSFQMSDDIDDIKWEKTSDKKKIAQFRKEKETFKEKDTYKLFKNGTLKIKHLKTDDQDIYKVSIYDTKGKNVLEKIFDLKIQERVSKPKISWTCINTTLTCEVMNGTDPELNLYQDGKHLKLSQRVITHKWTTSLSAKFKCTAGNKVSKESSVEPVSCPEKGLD
Assay: SPR (Biacore T200), IgG amine-coupled to CM5 chip, CD2 injected up to 5 nM, two-state model, 25 °C
Description: All interaction experiments were performed at 25° C. Recombinant truncated human CD2 (Sino Biological, Beijing, China) was diluted in two-fold dilution series with the highest concentration being 5 nM and injected for 180 seconds over immobilized IgG. After 15 minutes of dissociation, the sensor chip was regenerated by 30 seconds injection of 10 mM glycine pH 1.7. Sensorgrams from reference surfaces and blank injections were subtracted from the raw data prior to data analysis. A two-state (induced fit) interaction model was fitted to the data using T200 evaluation software v3.0 (Cytiva Life Sciences/Biacore, Uppsala, Sweden) to determine kinetic rate constants and affinities.

- Kd: 1.2 nM
B1: Siplizumab (humanized anti-CD2 IgG1κ) (antibody, V domains shown)
VH: QVQLVQSGAEVQRPGASVKVSCKASGYIFTEYYMYWVRQAPGQGLELVGRIDPEDGSIDYVEKFKKKVTLTADTSSSTAYMELSSLTSDDTAVYYCARGKFNYRFAYWGQGTLVTVSS
VL: DVVMTQSPPSLLVTLGQPASISCRSSQSLLHSSGNTYLNWLLQRPGQSPQPLIYLVSKLESGVPDRFSGSGSGTDFTLKISGVEAEDVGVYYCMQFTHYPYTFGQGTKLEIK
notes: also called MEDI-507; anti-CD2 Ab1

- Kd: 1.2 nM
B2: CD2-binding molecule 1 (a deglycosylated CD2-binding molecule) (antibody, V domains shown)
VH: B1 VH
VL: B1 VL
modifications: Fc N-glycan removed with EndoS2 (GlycINATOR)
notes: produced with GlycINATOR (EndoS2)

- Kd: 0.9 nM
B3: CD2-binding molecule 3 (FcS anti-CD2 IgG2) (antibody, V domains shown)
VH: B1 VH
VL: B1 VL
notes: Standard IgG2 framework with V234A, G237A, P238S, H268A, V309L, A330S, P331S; made in CHO-K1 cells

- Kd: 1.5 nM
B4: CD2-binding molecule 2 (Fc-silent (FcS) anti-CD2 IgG1) (antibody, V domains shown)
VH: B1 VH
VL: B1 VL
notes: IgG1 with LALA-PG mutations at equivalent sites in siplizumab; made in CHO-K1 cells; also called Fc-silent Siplizumab

- Kd: 1.4 nM
B5: CD2-binding molecule 4 (FcS anti-CD2 IgG4) (antibody, V domains shown)
VH: B1 VH
VL: B1 VL
notes: Standard IgG4 framework with S228P, L235E, P329G; made in CHO-K1 cells
